Results as given in paper PMC11406985.

Target: medusavirus major capsid protein (medusavirus)
Assay: cryo-EM structure; purified medusavirus particles (DNA-empty and DNA-full) assembled in infected amoebae, in PBS; single particle analysis with block-based reconstruction of fivefold, threefold and twofold blocks, 7.3-9.9 Å; AlphaFold2 model of the MCP fitted into the map

In the case of “medusavirus major capsid protein (natural protein)”, the stoichiometry N is reported as 3.
